Like-named read-outs stand apart in the source and are kept apart here.
Key:
[1] = test system: T1, APG05459.1 (Enterococcus sp.); experiment: cleavage_in_vitro
T1 sequence: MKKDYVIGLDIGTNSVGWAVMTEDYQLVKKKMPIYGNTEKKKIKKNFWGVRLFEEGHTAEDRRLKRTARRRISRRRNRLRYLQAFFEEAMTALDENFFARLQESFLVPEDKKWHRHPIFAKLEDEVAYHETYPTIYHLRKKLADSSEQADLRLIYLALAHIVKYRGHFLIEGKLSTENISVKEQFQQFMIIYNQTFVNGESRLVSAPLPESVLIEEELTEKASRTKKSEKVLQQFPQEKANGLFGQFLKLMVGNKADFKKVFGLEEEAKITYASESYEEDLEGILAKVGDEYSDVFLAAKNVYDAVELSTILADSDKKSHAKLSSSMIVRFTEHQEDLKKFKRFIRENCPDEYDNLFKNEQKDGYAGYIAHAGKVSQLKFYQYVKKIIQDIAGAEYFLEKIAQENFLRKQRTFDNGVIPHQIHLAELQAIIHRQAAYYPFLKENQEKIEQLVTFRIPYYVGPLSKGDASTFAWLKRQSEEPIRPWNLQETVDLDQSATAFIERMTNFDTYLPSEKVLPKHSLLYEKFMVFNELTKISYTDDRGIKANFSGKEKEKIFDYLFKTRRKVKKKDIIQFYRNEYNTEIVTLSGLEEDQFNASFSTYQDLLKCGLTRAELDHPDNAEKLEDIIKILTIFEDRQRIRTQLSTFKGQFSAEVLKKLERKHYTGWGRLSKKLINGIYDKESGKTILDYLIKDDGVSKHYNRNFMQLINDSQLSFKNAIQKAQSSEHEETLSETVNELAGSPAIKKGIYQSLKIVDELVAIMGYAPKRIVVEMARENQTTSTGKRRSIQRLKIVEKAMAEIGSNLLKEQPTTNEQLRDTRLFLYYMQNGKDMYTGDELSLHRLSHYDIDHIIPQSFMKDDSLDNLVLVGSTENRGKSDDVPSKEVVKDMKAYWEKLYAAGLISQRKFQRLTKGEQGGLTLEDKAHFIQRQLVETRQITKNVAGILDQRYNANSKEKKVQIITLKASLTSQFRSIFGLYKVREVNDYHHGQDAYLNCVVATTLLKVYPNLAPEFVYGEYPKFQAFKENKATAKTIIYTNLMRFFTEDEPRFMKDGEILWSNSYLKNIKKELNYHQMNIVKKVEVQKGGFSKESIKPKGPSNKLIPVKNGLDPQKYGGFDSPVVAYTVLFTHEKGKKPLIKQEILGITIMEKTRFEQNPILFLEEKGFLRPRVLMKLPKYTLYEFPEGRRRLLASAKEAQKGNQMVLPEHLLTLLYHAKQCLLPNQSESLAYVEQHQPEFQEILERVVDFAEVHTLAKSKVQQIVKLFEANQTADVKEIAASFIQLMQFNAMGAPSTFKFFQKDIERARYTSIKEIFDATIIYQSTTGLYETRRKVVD

APG05083.1 = molecular target: T2, APG05083.1 (Bacillus sp.); experiment: cell_activity; HEK293T; PAM NNNNCC; settings: tags: E. coli pRSF-1b expression; human cells: N-term SV40 NLS and 3xFLAG, C-term nucleoplasmin NLS
T2 chain: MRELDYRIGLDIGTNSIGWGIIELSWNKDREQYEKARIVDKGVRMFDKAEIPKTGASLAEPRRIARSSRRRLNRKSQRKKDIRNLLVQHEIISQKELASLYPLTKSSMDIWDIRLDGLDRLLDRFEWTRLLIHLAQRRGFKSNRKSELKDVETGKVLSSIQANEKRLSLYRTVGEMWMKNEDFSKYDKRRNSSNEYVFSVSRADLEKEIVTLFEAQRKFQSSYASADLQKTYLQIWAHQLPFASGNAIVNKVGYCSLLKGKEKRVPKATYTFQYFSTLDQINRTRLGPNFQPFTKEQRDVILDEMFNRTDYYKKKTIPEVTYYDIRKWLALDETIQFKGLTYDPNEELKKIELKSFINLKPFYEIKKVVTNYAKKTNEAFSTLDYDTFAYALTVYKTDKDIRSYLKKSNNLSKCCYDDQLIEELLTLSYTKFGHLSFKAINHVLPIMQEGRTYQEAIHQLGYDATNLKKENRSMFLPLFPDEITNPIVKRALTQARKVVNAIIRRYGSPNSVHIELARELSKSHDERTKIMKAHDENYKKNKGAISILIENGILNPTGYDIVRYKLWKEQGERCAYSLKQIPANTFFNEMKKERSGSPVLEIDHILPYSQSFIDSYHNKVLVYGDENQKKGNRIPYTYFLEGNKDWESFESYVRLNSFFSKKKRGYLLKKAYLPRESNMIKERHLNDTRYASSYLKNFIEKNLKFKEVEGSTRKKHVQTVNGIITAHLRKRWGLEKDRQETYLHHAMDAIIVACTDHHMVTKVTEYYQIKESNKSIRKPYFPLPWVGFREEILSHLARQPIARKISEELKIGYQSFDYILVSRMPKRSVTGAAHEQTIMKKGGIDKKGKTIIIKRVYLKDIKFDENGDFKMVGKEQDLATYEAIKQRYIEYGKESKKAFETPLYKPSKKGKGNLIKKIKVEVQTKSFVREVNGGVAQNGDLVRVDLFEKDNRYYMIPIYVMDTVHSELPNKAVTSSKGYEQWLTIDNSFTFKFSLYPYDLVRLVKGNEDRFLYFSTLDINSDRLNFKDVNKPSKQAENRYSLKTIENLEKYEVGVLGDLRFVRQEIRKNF
Description: The constructs described above were introduced into mammalian cells. One day prior to transfection, 1×10⁵ HEK293T cells/well (Sigma) were plated in 24-well dishes in Dulbecco's modified Eagle medium (DMEM) plus 10% (vol/vol) fetal bovine serum (Gibco) and 1% Penicillin-Streptomycin (Gibco). The next day when the cells were at 50-60% confluency, 500 ng of a RGN expression plasmid plus 500 ng of a single gRNA expression plasmid were co-transfected using […] of Lipofectamine 3000 (Thermo Scientific) per well, following the manufacturer's instructions. After 48 hours of growth, total genomic DNA was harvested using a genomic DNA isolation kit (Machery-Nagel) according to the manufacturer's instructions.
Additionally, products from PCR #2 containing Illumina overhang sequences underwent library preparation following the Illumina 16S Metagenomic Sequencing Library protocol. Deep sequencing was performed on an Illumina Mi-Seq platform by a service provider (MOGene). Typically 200,000 of 250 bp paired-end reads (2×100,000 reads) are generated per amplicon. The reads were analyzed using CRISPResso (Pinello, et al. 2016 Nature Biotech, 34:695-697) to calculate the rates of editing. Output alignments were hand-curated to confirm insertion and deletion sites as well as identify microhomology sites at the recombination sites. All experiments were performed in human cells. The “target sequence” is the targeted sequence within the gene target. For each target sequence, the guide RNA comprised the complementary RNA target sequence and the appropriate sgRNA depending on the RGN used.

**Q.** Which activity [1] does the source give for “GAGCGGACAGCAGCUUCCUAUAUCUCGUACNNNNNNNNNNNNNNNNNNNNNNNNNGUUUUAGAGUCAUGUUAAAGAACAUAGCAAGUUAAAAUAAGGUUUUAACCGUAAUCAACUGUAAAGUGGCGCUGUUUCGGCGCUUUUUUUGUUU / GAGCGGACAGCAGCTTCGTATATCTCGTAC / GTACGAGATATACGAAGCTGCTGTCCGCTC [Sequence 1 sgRNA for APG05459.1 ; target mismatch 13]” here?
**A.** Its activity is 18 % cleaved.

**Q.** For “GAGCGGACAGCAGCUUCCUAUAUCUCGUACNNNNNNNNNNNNNNNNNNNNNNNNNGUUUUAGAGUCAUGUUAAAGAACAUAGCAAGUUAAAAUAAGGUUUUAACCGUAAUCAACUGUAAAGUGGCGCUGUUUCGGCGCUUUUUUUGUUU / GAGCGGACAGCAGCTTCCTATATCTCGTAG / CTACGAGATATAGGAAGCTGCTGTCCGCTC [Sequence 1 sgRNA for APG05459.1 ; target mismatch 1]”, which activity [1] is on record?
**A.** Its activity is 0 % cleaved.

**Q.** For “GAGCGGACAGCAGCUUCCUAUAUCUCGUACNNNNNNNNNNNNNNNNNNNNNNNNNGUUUUAGAGUCAUGUUAAAGAACAUAGCAAGUUAAAAUAAGGUUUUAACCGUAAUCAACUGUAAAGUGGCGCUGUUUCGGCGCUUUUUUUGUUU / GAGCGGACAGCAGCTTCCTATATCTCGTAC / GTACGAGATATAGGAAGCTGCTGTCCGCTC”, which activity ([1]; incompatible PAM) is on record?
**A.** Its activity is 0 % cleaved.

**Q.** Which activity [1] does the source give for “GAGCGGACAGCAGCUUCCUAUAUCUCGUACNNNNNNNNNNNNNNNNNNNNNNNNNGUUUUAGAGUCAUGUUAAAGAACAUAGCAAGUUAAAAUAAGGUUUUAACCGUAAUCAACUGUAAAGUGGCGCUGUUUCGGCGCUUUUUUUGUUU / GAGCGGACAGCACCTTCCTATATCTCGTAC / GTACGAGATATAGGAAGGTGCTGTCCGCTC [Sequence 1 sgRNA for APG05459.1 ; target mismatch 18]” here?
**A.** The activity was 0 % cleaved.

**Q.** Which activity [1] does the source give for “GAGCGGACAGCAGCUUCCUAUAUCUCGUACNNNNNNNNNNNNNNNNNNNNNNNNNGUUUUAGAGUCAUGUUAAAGAACAUAGCAAGUUAAAAUAAGGUUUUAACCGUAAUCAACUGUAAAGUGGCGCUGUUUCGGCGCUUUUUUUGUUU / GAGCGGACAGCAGCTTCCTATATCTCGTTC / GAACGAGATATAGGAAGCTGCTGTCCGCTC [Sequence 1 sgRNA for APG05459.1 ; target mismatch 2]” here?
**A.** Its activity is 74 % cleaved.

**Q.** How did the activity [1] turn out when “GAGCGGACAGCAGCUUCCUAUAUCUCGUACNNNNNNNNNNNNNNNNNNNNNNNNNGUUUUAGAGUCAUGUUAAAGAACAUAGCAAGUUAAAAUAAGGUUUUAACCGUAAUCAACUGUAAAGUGGCGCUGUUUCGGCGCUUUUUUUGUUU / CAGCGGACAGCAGCTTCCTATATCTCGTAC / GTACGAGATATAGGAAGCTGCTGTCCGCTG [Sequence 1 sgRNA for APG05459.1 ; target mismatch 30]” was run?
**A.** The activity was 57 % cleaved.

**Q.** With “GAGCGGACAGCAGCUUCCUAUAUCUCGUACNNNNNNNNNNNNNNNNNNNNNNNNNGUUUUAGAGUCAUGUUAAAGAACAUAGCAAGUUAAAAUAAGGUUUUAACCGUAAUCAACUGUAAAGUGGCGCUGUUUCGGCGCUUUUUUUGUUU / GAGCGGACAGCAGCTTCCTATATCTCGAAC / GTTCGAGATATAGGAAGCTGCTGTCCGCTC [Sequence 1 sgRNA for APG05459.1 ; target mismatch 3]” as the molecule, how does the activity [1] read?
**A.** Its activity is 3 % cleaved.

**Q.** With “GAGCGGACAGCAGCUUCCUAUAUCUCGUACNNNNNNNNNNNNNNNNNNNNNNNNNGUUUUAGAGUCAUGUUAAAGAACAUAGCAAGUUAAAAUAAGGUUUUAACCGUAAUCAACUGUAAAGUGGCGCUGUUUCGGCGCUUUUUUUGUUU / GAGCGGACAGCAGCTTCCTATATCTGGTAC / GTACCAGATATAGGAAGCTGCTGTCCGCTC [Sequence 1 sgRNA for APG05459.1 ; target mismatch 5]” as the molecule, how does the activity [1] read?
**A.** Its activity is 0 % cleaved.

**Q.** How did the activity [1] turn out when “GAGCGGACAGCAGCUUCCUAUAUCUCGUACNNNNNNNNNNNNNNNNNNNNNNNNNGUUUUAGAGUCAUGUUAAAGAACAUAGCAAGUUAAAAUAAGGUUUUAACCGUAAUCAACUGUAAAGUGGCGCUGUUUCGGCGCUUUUUUUGUUU / GAGCGGACAGCAGCTTCCTAAATCTCGTAC / GTACGAGATTTAGGAAGCTGCTGTCCGCTC [Sequence 1 sgRNA for APG05459.1 ; target mismatch 10]” was run?
**A.** The activity was 52 % cleaved.

**Q.** For “GAGCGGACAGCAGCUUCCUAUAUCUCGUACNNNNNNNNNNNNNNNNNNNNNNNNNGUUUUAGAGUCAUGUUAAAGAACAUAGCAAGUUAAAAUAAGGUUUUAACCGUAAUCAACUGUAAAGUGGCGCUGUUUCGGCGCUUUUUUUGUUU / GAGCGGACAGCAGCTTCCTATATCTCGTAC / GTACGAGATATAGGAAGCTGCTGTCCGCTC [Sequence 1 sgRNA for APG05459.1 ; Sequence 1 target]”, which activity ([1]; PAM SEQ 41, blunt cut 3 from PAM (Table 3)) is on record?
**A.** Its activity is 67 % cleaved.

B1: Guide 168 ; HPRT1 target of guide 168 (ssRNA ; dsDNA)
RNA: CACAUCUCGAGCAAGACGUUGUCAUAGUUCCAUUAUUGCAAAGGCUUUGAUGUUUCUAUGAUAAGGGCUUAGGCCCGUGGCGUUGGGGAUCGCCUGCCCAUUUUAAUGGGCUUCUCCCCAUCUAUUU
DNA 1: CACATCTCGAGCAAGACGTT
DNA 2: AACGTCTTGCTCGAGATGTG
**Q.** With B1 as the molecule, how does the activity (APG05083.1) read?
**A.** The activity was 11.3 % editing.

B2: Guide 185 ; RelA target of guide 185 (ssRNA ; dsDNA)
RNA: GGACAGUGCGCAUCUCCCUGGUCAUAGUUCCAUUAUUGCAAAGGCUUUGAUGUUUCUAUGAUAAGGGCUUAGGCCCGUGGCGUUGGGGAUCGCCUGCCCAUUUUAAUGGGCUUCUCCCCAUCUAUUU
DNA 1: GGACAGTGCGCATCTCCCTG
DNA 2: CAGGGAGATGCGCACTGTCC
**Q.** With B2 as the molecule, how does the activity (APG05083.1) read?
**A.** The activity was 8.2 % editing.
